The record followed here is patent US7521536B2, “Glutamate transporter associated protein” (The Johns Hopkins University School of Medicine, priority 1999, dated 2009).

In data set [1] the test system is GTRAP3-18. Put plainly: retinoic acid regulation of GTRAP3-18 and EAAC1-mediated glutamate transport in HEK293 cells. The data set is classed as cell-based. The source says: Human GTRAP3-18 (JWA protein) was originally identified as a retinoic acid responsive gene. […] The loss of transport activity is not due to changes in EAAC1 protein level (FIG. 9A) or the cellular membrane localization of EAAC1 protein by retinoic acid as examined by fluorescent microscopy. To confirm that loss of transport activity was specifically due to GTRAP3-18 and not by other factors induced by retinoic acid or direct effects on EAAC1, a truncated EAAC1 cDNA, lacking the last 93 amino acids, was constructed. The truncation corresponded to the region used as bait in yeast two-hybrid screening, and was not able to interact with GTRAP3-18. Nevertheless, after transient expression in HEK293 cells, the truncated EAAC1 transported glutamate. […] Thus, the loss of transport activity by retinoic acid was the result of GTRAP3-18 induction. […] This could reflect lack of natural inhibition of the truncated protein EAAC1 by endogenous GTRAP3-18—results similar to the effects of GTRAP3-18 antisense treatment (FIG. 9E).

The test system of data set [2] is EAAT4. The experiment in a line: cerebellar glutamate uptake after intra-cisternal injection of HSV amplicon vectors. The data set is classed as in vivo, rat. The note with it: 48 hrs after intra-cisternal injection of HSV amplicon vector, vs control HSVlac.
In data set [3] the target is T1, EAAT4 (Rattus norvegicus, UniProt O35921).
T1 sequence (O35921 1-561): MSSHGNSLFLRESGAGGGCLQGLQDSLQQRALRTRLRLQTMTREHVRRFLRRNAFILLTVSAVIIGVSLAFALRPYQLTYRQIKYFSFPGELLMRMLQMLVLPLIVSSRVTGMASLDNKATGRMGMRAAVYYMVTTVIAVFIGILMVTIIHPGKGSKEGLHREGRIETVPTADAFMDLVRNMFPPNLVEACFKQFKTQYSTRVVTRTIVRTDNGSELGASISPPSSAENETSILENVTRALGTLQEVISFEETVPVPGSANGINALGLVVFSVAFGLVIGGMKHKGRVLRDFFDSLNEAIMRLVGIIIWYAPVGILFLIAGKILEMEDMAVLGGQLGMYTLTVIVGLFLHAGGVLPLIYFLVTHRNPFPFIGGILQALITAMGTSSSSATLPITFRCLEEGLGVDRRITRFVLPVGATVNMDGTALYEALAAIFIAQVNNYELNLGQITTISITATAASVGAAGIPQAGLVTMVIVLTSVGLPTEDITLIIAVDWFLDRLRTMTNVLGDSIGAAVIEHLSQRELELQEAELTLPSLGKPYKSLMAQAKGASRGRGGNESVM
Put plainly: Na+-dependent L-[3H]-glutamate uptake in HEK-rEAAT4 cells transfected with GTRAPs. The format is cell-based. Further details: expressed in transfected cells. As to the method: To determine function relationships between GTRAPs and glutamate transporter proteins, sodium-dependent, glutamate transport activity was measured in HEK-rEAAT4 cells transfected with one or more interacting proteins.
To determine the effects of GTRAPs on glutamate transport function, Na+-dependent glutamate transport activity was measured in cells stably transfected with EAAT4, EAAC1, or another glutamate transporter protein and one or more interacter proteins. Stably transfected cells were grown in a monolayer on 6-well plates in MEM supplemented with 10% fetal bovine serum and L-glutamine. Assays were conducted when cells reached ˜80% confluency. The wells were pre-rinsed twice with 2 ml of ice-cold tissue buffer (50 mM Tris, 320 mM sucrose, pH 7.4). The cells were then incubated for 4 min at 37° C. with 1 ml of either sodium-(120 mM NaCl, 25 mM NaHCO3, 5 mM KCl, 2 mM CaCl2, 1 mM KH2PO4, 1 mM MgSO4, 10% glucose and […]) or choline-(120 mM choline Cl, 25 mM Tris-HCl pH 7.4, 5 mM KCl, 2 mM CaCl2, 1 mM KH2PO4, 1 mM MgSO4, 10% glucose and […]) containing buffer labeled with L-[^3H]Glu. Uptake was stopped by rinsing three times with 2 ml of ice-cold wash buffer (50 mM Tris pH 7.5 and 160 mM NaCl). Cells were solubilized in 1 ml of 0.1 N NaOH, and […] of lysate was analyzed for radioactivity in a scintillation counter. Na^+-dependent uptake was defined as the difference in radioactivity accumulated in Na^+-containing buffer and in choline-containing buffer. Protein content was measured and glutamate uptake calculated as nmole glutamate per mg of protein. In some cases, homogenates were examined for EAAT4, GTRAP4-41 and GTRAP 4-48 protein.
In an alternative protocol, HEK-rEAAT4 cells transfected with GTRAP4-41 and GTRAP4-48 were grown in a monolayer on 6-well plates in MEM supplemented with 10% fetal bovine serum and L-glutamine. Assays were conducted about 72 h after transfection using the method of Davis (Davis et al., J Neurosci. 18, 2475-2485 (1998)). […] Glutamate transport was measured by methods described herein.

Data set [4] addresses T2, GST-EAAT4 (Rattus norvegicus, UniProt O35921).
T2 construct: Full-length EAAT4 was subcloned into the EcoR I site of the GST-fusion vector pGEX-6P-1 (Pharmacia); made in house; host or cells: E. coli BL21 (Novagen)
T2 sequence (O35921 1-561): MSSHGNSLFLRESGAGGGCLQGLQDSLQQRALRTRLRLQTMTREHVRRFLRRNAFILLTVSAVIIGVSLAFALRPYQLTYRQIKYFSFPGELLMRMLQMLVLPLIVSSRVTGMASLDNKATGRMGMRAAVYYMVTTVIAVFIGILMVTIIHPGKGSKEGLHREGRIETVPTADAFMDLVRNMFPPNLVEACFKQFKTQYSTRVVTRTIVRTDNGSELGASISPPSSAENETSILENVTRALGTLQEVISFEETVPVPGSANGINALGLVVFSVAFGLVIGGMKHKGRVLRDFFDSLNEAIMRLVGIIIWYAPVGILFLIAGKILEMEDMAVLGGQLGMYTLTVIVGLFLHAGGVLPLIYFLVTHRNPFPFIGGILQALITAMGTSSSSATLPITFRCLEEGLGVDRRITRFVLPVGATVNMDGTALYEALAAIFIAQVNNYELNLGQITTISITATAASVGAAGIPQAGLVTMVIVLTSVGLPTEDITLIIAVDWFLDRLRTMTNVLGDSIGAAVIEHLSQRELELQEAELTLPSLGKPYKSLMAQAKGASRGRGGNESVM
Put plainly: in vitro binding to GST-EAAT4 fusion protein. The note with it: myc-tagged protein from HEK 293T lysate; no binding to GST. As to the method:
Fusion proteins and in vitro binding. Full-length EAAT4 was subcloned into the EcoR I site of the GST-fusion vector pGEX-6P-1 (Pharmacia). Synthesis of recombinant proteins in BL21 cells (Novagen) was induced by 0.1 mM isopropyl β-D-thiogalactoside for 2 hrs at 30° C. and purified according to the protocol provided by the manufacturer (Pharmacia). HEK 293T cells were transfected with myc-tagged GTRAP4-41 or GTRAP4-48 and harvested in ice-cold immunoprecipitation (IP) buffer (phosphate buffered saline (pH 7.1), 5 mM EDTA, 1 mM sodium orthovanadate, 0.1 mM phenylmethylsulphonyl fluoride (PMSF), 0.3 μM aprotinin and 1% Triton X-100). The cellular lysate was incubated with GST or GST-EAAT4 immobilized on glutathione-Sepharose-4B, and washed to remove non-specifically bound proteins. Specifically bound proteins were eluted with 2×SDS loading buffer and analyzed by immunoblotting using an anti-c-myc antibody.
GTRAP4-41 and 4-48 Immunoprecipitation with Fusion Proteins. Full-length EAAT4 was subcloned into the EcoR I site of the GST-fusion vector pGEX-6P-1 (Pharmacia). […] Specifically bound proteins were eluted with 3×SDS loading buffer and analyzed by immunoblotting using an anti-c-myc antibody. […]

The subject of data set [5] is EAAT4. Put plainly: EAAT4 protein level after cycloheximide treatment, densitometry, HEK-rEAAT4 cells. The data set is classed as cell-based, rat. The note with it: 12 hrs after cycloheximide, GTRAP coexpressed; HEK-rEAAT4 alone 54±0.6%. As to the method:
To examine changes in the cell surface levels of EAAT4, a cell membrane-impermeant biotinylation reagent to label cell surface proteins selectively. Biotinylation of cell surface proteins was performed as described in Duan et al. (Duan, et al., J. Neurosci. 19, 10193-10200 (1999)). SOD1 was used to control for total protein and to determine whether the biotinylation reagent labels proteins in the intracellular compartment. Densitometry was performed using the NIH Image program.
However it is also possible that there is increased expression of the cell's native gene. To address this question cells were treated 48 hrs after transfection with cycloheximide, an inhibitor of protein synthesis. […] In contrast, 81±2% and 74±1.7% of the EAAT4 protein remains after 12 hrs when GTRAP4-41 and GTRAP4-48 are coexpressed, respectively.

Data set [6] concerns the target T3, Rho (Homo sapiens, UniProt P61586).
T3 construct: made in house; host or cells: bacterial cells
The experiment in a line: guanine nucleotide exchange assay (GTPγS binding to small G proteins). To be noted: GST-RhoA, GST-Cdc42 and GST-Rac, 10 min at 30° C. The data set is classed as biochemical. As to the method: Guanine nucleotide exchange assay. Small G proteins GST-RhoA, GST-CDC42 and GST-Rac were expressed in bacterial cells and affinity purified to ˜80% purity using a glutathione column. Twenty pmoles of each protein were incubated with 100 pmoles GTPγS for 10 min at 30° C. with varying concentrations of full-length GTRAP4-48 or p115. The binding reactions were filtered through BA-85 nitrocellulose and the amount of GTPγS bound to small G protein was quantitated by scintillation counting of the dried filters. The amount of GTPγS that bound to GST-RhoA, GST-Cdc42 and GST-Rac in the presence of full-length GTRAP4-48 or p115 was measured.

T3 sequence (P61586 whole entry): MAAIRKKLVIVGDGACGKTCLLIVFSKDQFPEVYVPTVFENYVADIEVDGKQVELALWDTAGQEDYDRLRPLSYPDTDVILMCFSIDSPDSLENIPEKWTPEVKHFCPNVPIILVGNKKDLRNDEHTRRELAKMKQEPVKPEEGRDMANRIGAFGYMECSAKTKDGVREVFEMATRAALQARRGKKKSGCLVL

The molecule `CC1=C(/C=C/C(C)=C/C=C/C(C)=C/C(=O)O)C(C)(C)CCC1` [Retinoic acid, retinoic acid] returned a non-toxic dose range in data set [1] of 1 to 10 µM.

“GTRAP4-41: glutamate transporter 4 associated protein, 2,388 amino acids (SEQ ID NO:2), 87% identity with β-spectrin III”: the cerebellar glutamate uptake entry in data set [2] was “elevated”. Also, the Michaelis constant (Km) in data set [3] (GTRAP co-expressed with EAAT4, EAAT4 alone 7 (GTRAP41 experiment) or 10 (GTRAP48 experiment)) was determined as 11 µM. Also, the “Vmax of glutamate uptake” value in data set [3] (GTRAP co-expressed with EAAT4, EAAT4 alone 222 (GTRAP41 experiment) or 208 (GTRAP48 experiment)) was found to be 605 pmol/mg/min. Also, in data set [3] (HEK-rEAAT4 cells transfected with the GTRAP, vs vector alone), the “increase in glutamate transport” value is given as “two”. For the same molecule, the “binding to GST-EAAT4 fusion protein” value in data set [4] is listed as “bind”. Besides, the EAAT4 protein remaining in data set [5] is 81±2%.

B1: p115: RhoGEF that selectively activates Rho (protein)
chain: MEDFARGAASPGPSRPGLVPVSIIGAEDEDFENELETNSEEQNSQFQSLEQVKRRPAHLMALLQHVALQFEPGPLLCCLHADMLGSLGPKEAKKAFLDFYHSFLEKTAVLRVPVPPNVAFELDRTRADLISEDVQRRFVQEVVQSQQVAVGRQLEDFRSKRLMGMTPWEQELAQLEAWVGRDRASYEARERHVAERLLMHLEEMQHTISTDEEKSAAVVNAIGLYMRHLGVRTKSGDKKSGRNFFRKKVMGNRRSDEPAKTKKGLSSILDAARWNRGEPQVPDFRHLKAEVDAEKPGATDRKGGVGMPSRDRNIGAPGQDTPGVSLHPLSLDSPDREPGADAPLELGDSSPQGPMSLESLAPPESTDEGAETESPEPGDEGEPGRSGLELEPEEPPGWRELVPPDTLHSLPKSQVKRQEVISELLVTEAAHVRMLRVLHDLFFQPMAECLFFPLEELQNIFPSLDELIEVHSLFLDRLMKRRQESGYLIEEIGDVLLARFDGAEGSWFQKISSRFCSRQSFALEQLKAKQRKDPRFCAFVQEAESRPRCRRLQLKDMIPTEMQRLTKYPLLLQSIGQNTEEPTEREKVELAAECCREILHHVNQAVRDMEDLLRLKDYQRRLDLSHLRQSSDPMLSEFKNLDITKKKLVHEGPLTWRVTKDKAVEVHVLLLDDLLLLLQRQDERLLLKSHSRTLTPTPDGKTMLRPVLRLTSAMTREVATDHKAFYVLFTWDQEAQIYELVAQTVSERKNWCALITETAGSLKVPAPASRPKPRPSPSSTREPLLSSSENGNGGRETSPADARTERILSDLLPFCRPGPEGQLAATALRKVLSLKQLLFPAEEDNGAGPPRDGDGVPGGGPLSPARTQEIQENLLSLEETMKQLEELEEEFCRLRPLLSQLGGNSVPQPGCT
In the case of B1, in data set [6], the “guanine nucleotide exchange activity” value was “specific guanine nucleotide exchange activity for Rho”.
